Source: PMC10897489 (2024)

Biological target: reported 23mer NSP3 peptide from alphaviruses
Experiment: ITC

B1: FXR1 1–122 (domain or fragment)
chain: not shown
Kd: 19.4 µM
